The source of these data is US7598290B2, “Cytotoxic agents comprising new C-2 modified taxanes” (priority 2005, dated 2009).

The subject of test [1] is human melanoma cells, A-375. Put plainly: In vitro potency and specificity, WST-8 assay, antigen negative A-375 cells. In kind it is cell-based. The note with it: for IC50: A-375 (antigen negative), 4 days incubation, WST-8. How it is done:
(§1) In vitro potency and specificity of huC242-Taxoid conjugate. Samples of free taxoid or huC242-Taxoid conjugate were added to a 96-well flat bottomed tissue culture plate and titrated using serial dilutions ranging from 1×10^−12 M to 3×10^−7 M. Human colon tumor cells, COLO 205, or human melanoma cells, A-375, were added to the wells in such a way that there were triplicate samples for each drug concentration for each cell line. The plates were incubated at 37° C. in an atmosphere of 5% CO2 for 4 days.
(§2) At the end of the incubation period, 20 μl of the tetrazolium reagent WST-8 (2-(2-methoxy-nitrophenyl)-3-(4-nitrophenyl)-5-(2,4-disulfophenyl)-2-tetrazolium, monosodium salt]) was added to each well, and the plates were returned to the incubator for 2 hours. The absorbance in each well of the plates was then measured using the Molecular Devices plate reader at 450 nm. Surviving fraction of cells at each concentration of taxoid or conjugate are plotted in FIGS. 2 a,b.
A general note: Tetrazolium dyes change colour on reduction, which living cells bring about.

The test system of test [2] is Human colon tumor cells, COLO 205. Put plainly: In vitro potency and specificity, WST-8 assay, antigen positive COLO 205 cells. The note with it: COLO 205 (antigen positive), 4 days incubation. It counts as cell-based. How it is done: as §1, §2

`CSSC(C)(C)CCC(=O)O[C@H]1C(=O)[C@@]2(C)[C@H]([C@H](OC(=O)c3ccco3)[C@]3(O)C[C@H](OC(=O)[C@H](O)[C@@H](NC(=O)OC(C)(C)C)c4ccco4)C(C)=C1C3(C)C)[C@]1(OC(C)=O)CO[C@@H]1C[C@@H]2O` [IGT-16-141, 3′-dephenyl-3′-(2-furyl)-2-debenzoyl-2-(2-furoyl)-10-(4,4-dimethyl-4-methyldithiobutanoyl)-docetaxel]: the IC50 in test [1] (Homo sapiens, 96 h) was about 0.8 nM; in test [2] (Homo sapiens, 96 h), about 0.8 nM.

B1: huC242-taxoid (conjugate, chains of the INN, looked up)
VH: QVQLVQSGAEVKKPGETVKISCKASDYTFTYYGMNWVKQAPGQGLKWMGWIDTTTGEPTYAQKFQGRIAFSLETSASTAYLQIKSLKSEDTATYFCARRGPYNWYFDVWGQGTTVTVSS
VL: DIVMTQSPLSVPVTPGEPVSISCRSSKSLLHSNGNTYLYWFLQRPGQSPQLLIYRMSNLVSGVPDRFSGSGSGTAFTLRISRVEAEDVGVYYCLQHLEYPFTFGPGTKLELK
modifications: taxoid payload conjugate
Turning to B1, the IC50 in test [1] was 29 nM; in test [2], 0.31 nM. The “antigen negative cells less sensitive than COLO 205” value in test [1] (A-375 versus COLO 205) is given as “about 94 fold”.

The IC50 is the concentration that gives 50% inhibition.
